Consider two molecules from PMC7360590, “Structural basis of SALM3 dimerization and synaptic adhesion complex formation with PTPσ” (Scientific Reports, 2020).

The target in assay [1] is T1, SALM3 LRR-Ig (residues 17–367) (mouse, UniProt Q80XU8 17-367).
T1 construct: SALM3 (LRFN4), mouse, LRR and Ig domains, residues 17-367; also called SALM3 LRR-Ig construct; source: purified
T1 sequence (looked up): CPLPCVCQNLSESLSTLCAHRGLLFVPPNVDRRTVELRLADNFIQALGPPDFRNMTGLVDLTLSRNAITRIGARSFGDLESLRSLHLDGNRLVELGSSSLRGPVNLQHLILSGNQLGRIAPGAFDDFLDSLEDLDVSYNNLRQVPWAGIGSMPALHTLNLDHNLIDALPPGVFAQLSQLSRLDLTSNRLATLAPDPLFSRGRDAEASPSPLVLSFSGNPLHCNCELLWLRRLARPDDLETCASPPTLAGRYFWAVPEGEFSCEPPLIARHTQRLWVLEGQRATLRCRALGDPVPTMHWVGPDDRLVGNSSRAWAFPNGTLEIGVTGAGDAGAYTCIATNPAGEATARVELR
Description: SEC-SAXS; SALM3 LRR-Ig (60 µM) and PTPσ (80 µM) mixed, 1 h at 4 °C; Superdex 200 PC 3.2/30, 30 mM Tris HCl pH 7.5, 150 mM NaCl, 4 °C; rigid body (CORAL) and ab initio (DAMMIN) modelling. To be noted: both partners purified. On the technique in general: Size exclusion chromatography separates by hydrodynamic size, large species first.

In assay [2] the target is T2, mouse SALM3 LRR-Ig-Fn (residues 17–510), wild type, displayed on HEK293T cells (mouse, UniProt Q80XU8 17-510).
T2 construct: SALM3 (LRFN4), mouse, extracellular LRR-Ig-Fn, residues 17-510; also called WT SALM3; SALM3-pDisplay; source: HEK293T, transfected (pDisplay), on the cell surface; not shown: HA, N-terminal, kept; transmembrane domain (from the vector pDisplay), C-terminal, kept
T2 sequence (looked up): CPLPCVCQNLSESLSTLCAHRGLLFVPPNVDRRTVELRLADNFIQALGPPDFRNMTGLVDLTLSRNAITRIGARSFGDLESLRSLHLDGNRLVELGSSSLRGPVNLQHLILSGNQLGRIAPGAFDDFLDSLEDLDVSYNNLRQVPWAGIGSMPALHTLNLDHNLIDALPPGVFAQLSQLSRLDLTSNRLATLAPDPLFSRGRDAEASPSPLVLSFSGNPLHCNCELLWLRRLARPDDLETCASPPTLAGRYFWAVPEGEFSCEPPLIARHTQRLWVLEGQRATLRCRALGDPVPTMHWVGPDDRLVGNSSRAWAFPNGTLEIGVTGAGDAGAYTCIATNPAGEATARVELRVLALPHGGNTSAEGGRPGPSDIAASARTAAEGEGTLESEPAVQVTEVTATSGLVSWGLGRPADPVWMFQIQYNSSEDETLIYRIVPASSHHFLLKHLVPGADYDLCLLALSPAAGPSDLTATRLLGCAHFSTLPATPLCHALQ
Put plainly: in-cell Western (cell-based binding assay); apparent; concentration series of soluble PTPσ-Fc (1–250 nM) on SALM3-transfected HEK293T cells in 96-well plates, EGB buffer with 1% BSA, overnight at 4 °C; detected with anti-human IgG IRDye 800CW. Particulars: one partner purified.

B1: mouse PTPσ Ig1-3-meB+ (residues 33–331) (domain or fragment, UniProt B0V2N1 33-331, looked up)
chain: PRFIREPKDQIGVSGGVASFVCQATGDPKPRVTWNKKGKKVNSQRFETIDFDESSGAVLRIQPLRTPRDENVYECVAQNSVGEITIHAKLTVLREDQLPPGFPNIDMGPQLKVVERTRTATMLCAASGNPDPEITWFKDFLPVDPSASNGRIKQLRSGALQIESSEETDQGKYECVATNSAGVRYSSPANLYVRVRRVAPRFSILPMSHEIMPGGNVNITCVAVGSPMPYVKWMQGAEDLTPEDDMPVGRNVLELTDVKDSANYTCVAMSSLGVIEAVAQITVKSLPKAPGTPVVTENT
notes: Receptor protein tyrosine phosphatase sigma (PTPσ), mouse, Ig1-Ig3 domains, splice form with mini-exon B (meB+), residues 33-331; The meB+ splice form is meant; also called PTPσ_(Ig1-Ig3); PTPσ Ig1-Ig3; source: purified
On to B1, for which, in assay [1], the stoichiometry N (commonly a count of units in the complex or per binding partner) is 1 PTPσ per SALM3 (2:2 complex).

B2: PTPσ-Fc fusion protein (Fc fusion)
chain: PRFIREPKDQIGVSGGVASFVCQATGDPKPRVTWNKKGKKVNSQRFETIDFDESSGAVLRIQPLRTPRDENVYECVAQNSVGEITIHAKLTVLREDQLPPGFPNIDMGPQLKVVERTRTATMLCAASGNPDPEITWFKDFLPVDPSASNGRIKQLRSGALQIESSEETDQGKYECVATNSAGVRYSSPANLYVRVRRVAPRFSILPMSHEIMPGGNVNITCVAVGSPMPYVKWMQGAEDLTPEDDMPVGRNVLELTDVKDSANYTCVAMSSLGVIEAVAQITVKSLPKAPGTPVV
B2: the Kd in assay [2] was determined as 22.3 ± 5 nM.
